Self-cleavage data for 56 variants are collected here from the RNAGym collection of RNA variant scans (doi:10.7554/elife.90254).

Sequences and labels used below:
B1: LINE1-mini (parent)
chain: GGCAGAGCUCAACACAGCGUGGCAAAGUGGCUGUGGCUAGACUGCC

This series covers variants of B1. The series is described as follows: self-cleavage, relative activity (ratio to wild type); higher = more cleavage; in vitro, sequencing; the parent is a self-cleaving ribozyme.
As for GGCAGAGCUCAACACAGCGUGGAAAAGUGGCUCUGGCUAGACUGCC [C23A G33C], the self-cleavage was 0.05.
In the case of GGCAGAGCUCAACACAGCGUGGAAAAGUGGCUUUGGCUAGACUGCC [C23A G33U] it was 0.2; in that of GGCAGAGCUCAACACAGCGUGGAAAAGUGGCUAUGGCUAGACUGCC [C23A G33A], 0.78.
In the case of GGCAGAGCUCAACACAGCGUGGGAAAGUGGCUGUGGCUAGACAGCC [C23G U43A], the self-cleavage came out at 0.08.
In the case of GGCAGAGCUCAACACAGCGUGGGAAAGUGGCUGUGGCUAGACCGCC [C23G U43C] it was 0.24; in that of GGCAGAGCUCAACACAGCGUGGGAAAGUGGCUUUGGCUAGACUGCC [C23G G33U], 0.16; in that of GGCAGAGCUCAACACAGCGUGGGAAAGUGGCUAUGGCUAGACUGCC [C23G G33A], 0.32.
In the case of GGCAGAGCUCAACACAGCGUGGGAAAGUGGCUCUGGCUAGACUGCC [C23G G33C] it was 0.03.
In the case of GGCAGAGCUCAACACAGCGUGGAAAAGCGGCUGUGGCUAGACUGCC [C23A U28C] it was 0.88; in that of GGCAGAGCUCAACACAGCGUGGAAAAGAGGCUGUGGCUAGACUGCC [C23A U28A], 0.78.
As to GGCAGAGCUCAACACAGCGUGGAAAAGGGGCUGUGGCUAGACUGCC [C23A U28G], the self-cleavage came out at 0.44.
In the case of GGCAGAGCUCAACACAGCGUGGAAAAGUGGCUGUGGCUAAACUGCC [C23A G40A], the self-cleavage amounted to 0.14.
The figure for GGCAGAGCUCAACACAGCGUGGAAAAGUGGCUGUGGCUAUACUGCC [C23A G40U] is 0.14; for GGCAGAGCUCAACACAGCGUGGAAAAGUGGCUGUGGCUACACUGCC [C23A G40C] it is 0.15; for GGCAGAGCUCAACACAGCGUGGAAAAGUGGCUGAGGCUAGACUGCC [C23A U34A] it is 0.24.
As to GGCAGAGCUCAACACAGCGUGGAAAAGUGGCUGGGGCUAGACUGCC [C23A U34G], the self-cleavage is 0.22.
In the case of GGCAGAGCUCAACACAGCGUGGAAAAGUGGCUGCGGCUAGACUGCC [C23A U34C] it was 0.78; in that of GGCAGAGCUCAACACAGCGUGGGAAAGUGGCAGUGGCUAGACUGCC [C23G U32A], 0.07; in that of GGCAGAGCUCAACACAGCGUGGGAAAGUGGCGGUGGCUAGACUGCC [C23G U32G], 0.21.
The figure for GGCAGAGCUCAACACAGCGUGGGAAAGUGGCCGUGGCUAGACUGCC [C23G U32C] is 0.28; for GGCAGAGCUCAACACAGCGUGGAAAAGUGGCUGUGGCCAGACUGCC [C23A U38C] it is 0.52.
The figure for GGCAGAGCUCAACACAGCGUGGAAAAGUGGCUGUGGCGAGACUGCC [C23A U38G] is 0.02; for GGCAGAGCUCAACACAGCGUGGAAAAGUGGCUGUGGCAAGACUGCC [C23A U38A] it is 0.28; for GGCAGAGCUCAACACAGCGUGGGAAAGUCGCUGUGGCUAGACUGCC [C23G G29C] it is 0.26.
In the case of GGCAGAGCUCAACACAGCGUGGGAAAGUAGCUGUGGCUAGACUGCC [C23G G29A], the self-cleavage was 1.01.
In the case of GGCAGAGCUCAACACAGCGUGGGAAAGUUGCUGUGGCUAGACUGCC [C23G G29U], the self-cleavage amounted to 0.47.
In the case of GGCAGAGCUCAACACAGCGUGGGAAAGGGGCUGUGGCUAGACUGCC [C23G U28G] it was 0.89; in that of GGCAGAGCUCAACACAGCGUGGGAAAGAGGCUGUGGCUAGACUGCC [C23G U28A], 0.7; in that of GGCAGAGCUCAACACAGCGUGGGAAAGCGGCUGUGGCUAGACUGCC [C23G U28C], 0.66.
The figure for GGCAGAGCUCAACACAGCGUGGGAAAGUGGGUGUGGCUAGACUGCC [C23G C31G] is 0.07; for GGCAGAGCUCAACACAGCGUGGGAAAGUGGUUGUGGCUAGACUGCC [C23G C31U] it is 0.2; for GGCAGAGCUCAACACAGCGUGGGAAAGUGGAUGUGGCUAGACUGCC [C23G C31A] it is 0.09.
The figure for GGCAGAGCUCAACACAGCGUGGGAAAGUGGCUGUGGCUUGACUGCC [C23G A39U] is 0.69; for GGCAGAGCUCAACACAGCGUGGGAAAGUGGCUGUGGCUGGACUGCC [C23G A39G] it is 0.09; for GGCAGAGCUCAACACAGCGUGGGAAAGUGGCUGUGGCUCGACUGCC [C23G A39C] it is 0.07.
Regarding GGCAGAGCUCAACACAGCGUGGAAAAGUGGCUGUGGCUAGACGGCC [C23A U43G], the self-cleavage came out at 0.02.
For the variant GGCAGAGCUCAACACAGCGUGGAAAAGUGGCUGUGGCUAGACCGCC [C23A U43C], the self-cleavage was determined as 0.08.
The figure for GGCAGAGCUCAACACAGCGUGGAAAAGUGGCUGUGGCUAGACAGCC [C23A U43A] is 0.1; for GGCAGAGCUCAACACAGCGUGGGAAAGUGGCUGUGGCUAGAUUGCC [C23G C42U] it is 0.47.
In the case of GGCAGAGCUCAACACAGCGUGGGAAAGUGGCUGUGGCUAGAAUGCC [C23G C42A] it was 0.19; in that of GGCAGAGCUCAACACAGCGUGGGAAAGUGGCUGUGGCUAGAGUGCC [C23G C42G], 0.03; in that of GGCAGAGCUCAACACAGCGUGGGAAAGUGGCUGUGGCAAGACUGCC [C23G U38A], 0.32.
The figure for GGCAGAGCUCAACACAGCGUGGGAAAGUGGCUGUGGCCAGACUGCC [C23G U38C] is 0.42.
Regarding GGCAGAGCUCAACACAGCGUGGGAAAGUGGCUGUGGCGAGACUGCC [C23G U38G], the self-cleavage amounted to 0.02.
In the case of GGCAGAGCUCAACACAGCGUGGAAAAGUGGCGGUGGCUAGACUGCC [C23A U32G] it was 0.22; in that of GGCAGAGCUCAACACAGCGUGGAAAAGUGGCCGUGGCUAGACUGCC [C23A U32C], 0.47.
With GGCAGAGCUCAACACAGCGUGGAAAAGUGGCAGUGGCUAGACUGCC [C23A U32A], the self-cleavage worked out at 0.11.
Take GGCAGAGCUCAACACAGCGUGGAAAAGUGGCUGUGGCUAGACUGCU [C23A C46U]: the self-cleavage worked out at 1.1.
In the case of GGCAGAGCUCAACACAGCGUGGAAAAGUGGCUGUGGCUAGACUGCG [C23A C46G] it was 1.53; in that of GGCAGAGCUCAACACAGCGUGGAAAAGUGGCUGUGGCUAGACUGCA [C23A C46A], 0.98; in that of GGCAGAGCUCAACACAGCGUGGGAAAGUGGCUGUUGCUAGACUGCC [C23G G35U], 0.11.
The figure for GGCAGAGCUCAACACAGCGUGGGAAAGUGGCUGUCGCUAGACUGCC [C23G G35C] is 0.12; for GGCAGAGCUCAACACAGCGUGGGAAAGUGGCUGUAGCUAGACUGCC [C23G G35A] it is 0.14.
In the case of GGCAGAGCUCAACACAGCGUGGGAAAGUGACUGUGGCUAGACUGCC [C23G G30A] it was 1.88.
As to GGCAGAGCUCAACACAGCGUGGGAAAGUGCCUGUGGCUAGACUGCC [C23G G30C], the self-cleavage came out at 2.06.
The figure for GGCAGAGCUCAACACAGCGUGGGAAAGUGUCUGUGGCUAGACUGCC [C23G G30U] is 0.75.
